Experiment [1] concerns the target T1, soluble human IL-6R (human, UniProt P08887 20-357).
T1 construct: 152, 4958-4968 (1994); also called hsIL-6R; recombinant human IL-6R
T1 sequence: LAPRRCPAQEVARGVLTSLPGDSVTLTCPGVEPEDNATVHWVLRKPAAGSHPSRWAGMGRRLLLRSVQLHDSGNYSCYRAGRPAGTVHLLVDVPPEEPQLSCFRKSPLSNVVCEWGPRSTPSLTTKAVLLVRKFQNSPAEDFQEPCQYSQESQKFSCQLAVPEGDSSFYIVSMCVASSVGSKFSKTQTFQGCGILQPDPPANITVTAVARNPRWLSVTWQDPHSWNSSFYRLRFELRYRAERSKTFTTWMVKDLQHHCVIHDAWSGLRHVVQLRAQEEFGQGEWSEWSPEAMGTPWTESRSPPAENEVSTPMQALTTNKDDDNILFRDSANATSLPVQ
The experiment is described as follows: BLI (Octet HTX), molecule captured on Protein A biosensor, hsIL-6R as analyte, 30 C. The procedure: The hsIL-6R binding evaluation of each molecule was conducted using Octet HTX (Pall ForteBio Corp.). Specifically, each molecule was allowed to bind to Biosensor/Protein A (ProA) (Pall ForteBio Corp., 18-5013), and hsIL-6R was allowed to act thereon, followed by binding evaluation at 30° C.
Background: BLI is a label-free optical method that tracks binding on a fibre tip over time.

The target of experiment [2] is T1, soluble human IL-6R. As to the kind of experiment: BLI (Octet), in the same way as in Example 3.
For experiment [3], the target named is T1, soluble human IL-6R. The experiment is described as follows: BLI (Octet), in the same way as in Example 3, 30 C or 25 C.

B1: IL6R90-G1m/VK2-28-k0MT (antibody, human IgG1, kappa, V domains shown)
VH: EVQLVESGGGLVQPGGSLRLSCAASGFTFDDYGMSWVRQAPGKALEWVSAISWNGNNTYYTESMKGRFTISRDNAKNTLYLQMNSLRPEDTAVYYCVKGSTAIVGVPPTYPDEYDYWGQGTLVTVSS
VL: not shown
notes: IgG antibody-like molecule with VHH IL6R90 in place of VH
Turning to B1, the binding result with soluble human IL-6R [1] is reported as “no binding”.

B2: 20A11-G1m/VK2-28-k0MT (antibody, human IgG1, kappa, V domains shown)
VH: EVQLVESGGGLVQPGGSLRLSCAASGSVFKINVMAWYRQAPGKGRELVAGIISGGSTSYADSVKGRFTISRDNAKNTLYLQMNSLRPEDTAVYYCAFITTESDYDLGRRYWGQGTLVTVSS
VL: not shown
notes: IgG antibody-like molecule with VHH 20A11 in place of VH
As to B2, the binding result with soluble human IL-6R [2] was “binds”.

B3: 20A11hu-G1m/VK2-28-k0MT (antibody, human IgG1, kappa, V domains shown)
VH: EVQLVESGGGLVQPGGSLRLSCAASGSVFKINVMAWVRQAPGKGLEWVAGIISGGSTSYADSVKGRFTISRDNAKNTLYLQMNSLRPEDTAVYYCAFITTESDYDLGRRYWGQGTLVTVSS
VL: not shown
notes: IgG antibody-like molecule with VHH 20A11hu in place of VH
Consider B3, for which the binding result in the experiment with soluble human IL-6R [3] is “no binding”.
